In US20120003694A1 (SYRACUSE UNIVERSITY, published 2012):
Where two headings read alike, the source gives them in different places.

B1: pb2(95)-Ba (barnase fused to the first 95 amino acids of the N-terminal region of pre-cytochrome b2) (other)
chain: MLKYKPLLKISKNCEAAILRASKTRLNTIRAYGSTVPKSKSFEQDSRKRTQSWTALRVGAILAATSSVAYLNWHNGQIDNEPKLDMNKQKISPAEAQVINTFDGVADYLQTYHKLPDNYITKSEAQALGWVASKGNLADVAPGKSIGGDIFSNREGKLPGKSGRTWREADINYTSGFRNSDRILYSSDWLIYKTTDHYQTFTKIR
notes: range 1-95;domain: folded ribonuclease barnase (Ba), 110-residue
B2: FhuA ΔC/Δ4L protein nanopore (engineered Escherichia coli ferric hydroxamate uptake component A lacking the cork domain and loops L3, L4, L5 and L11) (other)
chain: LKEVQFKAGTDSLFQTGFDFSDSLDDDGVYSYRLTGLARSANAQQKGSEEQRYAIAPAFTWRPDDKTNFTFLSYFQNEPETGNSEGSTYSRNEKMVGYSFDHEFNDTFTVRQNLRFAENKTSQNSVYGYGVNSEGSYLARKYVVDDEKLQNFSVDTQLQSKFATGDIDHTLLTGVDFMRMRNDINAWFGYNSEGSGPYRILNKQKQTGVYVQDQAQWDKVLVTLGGRYDWADQESLNRVAGTTDKRDDKQFTWRGGVNYLFDNGVTPYFSYSESFEPSSQVGKDGNIFAPSKGKQYEVGVKYVPEDRPIVVTGAVYNLTKTNNLMADPEGSFFSVEGGEIRARGVEIEAKAALSASVNVVGSYTYTDAEYTTDTTYKGNTPAQVPKHMASLWADYTFFDGPLSGLTLGTGGRYTGSSYGDPANSFKVGSYTVVDALVRYDLARVGMAGSNVALHVNNSEGSQVVATATFRF
B3: pb2(35)-Ba (barnase fused to the first 35 amino acids of the N-terminal region of pre-cytochrome b2) (other)
chain: MLKYKPLLKISKNCEAAILRASKTRLNTIRAYGSTAQVINTFDGVADYLQTYHKLPDNYITKSEAQALGWVASKGNLADVAPGKSIGGDIFSNREGKLPGKSGRTWREADINYTSGFRNSDRILYSSDWLIYKTTDHYQTFTKIR
notes: range 1-35;domain: folded ribonuclease barnase (Ba), 110-residue; also called pb2(35)-Ba/35
B4: pb2(65)-Ba (barnase fused to the first 65 amino acids of the N-terminal region of pre-cytochrome b2) (other)
chain: MLKYKPLLKISKNCEAAILRASKTRLNTIRAYGSTVPKSKSFEQDSRKRTQSWTALRVGAILAATAQVINTFDGVADYLQTYHKLPDNYITKSEAQALGWVASKGNLADVAPGKSIGGDIFSNREGKLPGKSGRTWREADINYTSGFRNSDRILYSSDWLIYKTTDHYQTFTKIR
notes: range 1-65;domain: folded ribonuclease barnase (Ba), 110-residue

Key:
[1] = target: B2; test: single-channel recording at a higher applied voltage (+100 mV)
[2] = target: B2; test: single-channel recording at a higher applied voltage (+120 mV)
[3] = target: B3
[4] = target: T1, HIV-1 nucleocapsid protein (NCp7) (HIV-1, UniProt P04591 378-432); test: single-channel electrical recording, planar lipid bilayer, analyte added trans, 1 M KCl, 10 mM potassium phosphate, pH 7.4
T1 construct: domain: nucleocapsid protein (NCp7), 55 amino acids; also called NCp7/55

[5] = target: B3; test: as above

B1
partition time at +100 mV [1]: ~4 ms | partition time at +120 mV [2]: ~12 ms

B2
kon [3]: 110000 M⁻¹ s⁻¹ | koff [4]: 9000 s⁻¹ | kon [4]: 2e+06 M⁻¹ s⁻¹ | kon [5]: 180000 M⁻¹ s⁻¹

B3
partition time at +100 mV [1]: ~4 ms | partition time at +120 mV [2]: ~12 ms

B4
partition time at +100 mV [1]: ~4 ms | partition time at +120 mV [2]: ~12 ms
